Test results published in the supplement of paper PMC10201428.
± gives the standard deviation of the averaged measurements.

Key:
[1] = tested on: VchCAST RNA-guided transposition machinery (E. coli BL21(DE3) host, lacZ target); experiment: relative integration efficiency (T-RL orientation) vs wild-type transposon end (log2 (normalized fold change)); transposon end mutated: right end (5 bp flank + 75 bp right end); higher = more efficient transposition
Method in brief: (§1)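 Barcoded pools of 1549 left-end or 1849 right-end transposon variants were cloned into a pUC57 mini-transposon donor. Each pool was co-transformed with a T7-driven effector plasmid (CRISPR array, tniQ-cas8-cas7-cas6, tnsA-tnsB-tnsC) into E. coli BL21(DE3) and plated with 0.1 mM IPTG at 37°C for 18 h. Input plasmids and genomic integration junctions were PCR-amplified and Illumina-sequenced, with two biological output replicates and four wild-type barcodes as reference. Relative integration efficiency is output/input barcode abundance fold change, normalised to wild-type barcodes and log-transformed.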

[2] = tested on: VchCAST RNA-guided transposition machinery (E. coli BL21(DE3) host, lacZ target); experiment: relative integration efficiency (T-LR orientation) vs wild-type transposon end (log2 (normalized fold change)); transposon end mutated: right end (5 bp flank + 75 bp right end); higher = more efficient transposition
Method in brief: as §1

| Sequence | relative integration efficiency (log2) [1] | relative integration efficiency (log2) [2] |
| --- | --- | --- |
| ACATTAGTGGATACAACCATAAAATGATAATTACACCCATAAATGGATAATTATCACACCCAATTTAACTATAACGCTCTGATCATAGTCAGACCAACATTGCTACGACCCGTATTCGCACCGACAC | -7.08 ± 1.1 | -5.46 ± 0.48 |
| ACATTTGTTGATACAACCATATATTGATATCTCCAACCATATATTGATATCTCTCAGTGGGTATTTAACTATAACGCTCTGATCATAGTCAGACCAACATTGCTACGACCCGTATTCGCACCGACAC | -1.48 ± 0.31 | 2.41 ± 0.14 |
| ACATTTGTTGATACAACCATAAAATGATAATTACACCCATAAATTGATAATTATCACACCCATAAATTGATATTGCCTCTGATCATAGTCAGACCACAACCATAAAATGATAATTAAGCACCGACAC | -0.0173 ± 0.24 | -0.205 ± 0.37 |
| ACATTTGTTGATACACCCATAAATTGATAATTACACCCATAAATTGATATTGCTCACAACCATAAGTTGATATTTTCTCTGATCATAGTCAGACCAACATTGCTACGACCCGTATTCGCACCGACAC | -0.802 ± 0.24 | 0.079 ± 0.1 |
| ACATTTGTTGATACAACCATAAAATGATAATTAACACCCATAAATTGATAATTATCACACCCATAAATTGATATTGCCTCTGATCATAGTCAGACCAACATTGCTACGACCCGTATTCGCACCGACA | -0.572 ± 0.11 | -0.437 ± 0.21 |
| ACATTTGTTGATACAACCATAAAGTGATATTTACAACCATAAAATGATAATTATCACACCCATAAATTGATAATTACTCTGATCATAGTCAGACCAACATTGCTACGACCCGTATTCGCACCGACAC | 0.346 ± 0.076 | 0.307 ± 0.068 |
| ACATTTGTTGATACAACCATAAAATGATAATTACACCCATAAATTGATAATTTACACACCCATAAATTGATATTGCCTCTGATCATAGTCAGACCAACATTGCTACGACCCGTATTCGCACCGACAC | -0.0701 ± 0.25 | 0.268 ± 0.15 |
| ACATTTGTTGATACAACCATAAAATGATAATTACAACCATAAAATGATAATTATCACAACCATATATTGATATCTCCTCTGATCATAGTCAGACCAACATTGCTACGACCCGTATTCGCACCGACAC | -0.16 ± 0.32 | 0.049 ± 0.22 |
| ACATTTGTTGATACAACCATAAAAGTATAATTACACCCATAAATTGATAATTATCACACCCATAAATTGATATTGCCTCTGATCATAGTCAGACCAACATTGCTACGACCCGTATTCGCACCGACAC | -0.954 ± 0.16 | -0.606 ± 0.35 |
| ACATTTGTCGATACAACCATAAAATGATAATTACACCCATAAATGGATAATTATCACCCCCAATTTAACTATAACGCTCTGATCATAGTCAGACCAACATTGCTACGACCCGTATTCGCACCGACAC | -1.38 ± 0.18 | 1.38 ± 0.025 |
| ACATTTGTTGATACAACCATAAAATGATAATTAATAATTATTTATAATCAGCACACCCATAAATTGATAATTATCACACCCATAAATTGATATTGCCTCTGATCATAGTCAGACCAACATTGCTACG | -4.17 ± 0.11 | -2.77 ± 0.42 |
| ACATTTGTTGATACAACCATAAAATCATAATTACACCCATCAATTGATAATTATCACACCCCATTTAACTATAACGCTCTGATCATAGTCAGACCAACATTGCTACGACCCGTATTCGCACCGACAC | -4.31 ± 0.11 | -0.773 ± 0.047 |
| ACATTTGTTGATACAACCATAAAATGATAATTACACCCATAAATTGATAATTATCACACCCATAAATTGATATTGCCTCTGATAACTTGGTATAGCATACATTATACGAACGGTATCGCACCGACAC | -0.811 ± 0.36 | 0.663 ± 0.24 |
| ACATTTGTTGATACACCCATAAATTGATATTGCCAACCATATATTGATATCTCTCACACCCATAAATTGATATTGCCTCTGATCATAGTCAGACCAACATTGCTACGACCCGTATTCGCACCGACAC | -1.11 ± 0.06 | -0.587 ± 0.35 |
| ACATTTGTTGATACAACCATATATTGATATCTCCACCCATAAATTGATAATTATCACAACCATAAAGTGATATTTACTCTGATCATAGTCAGACCAACATTGCTACGACCCGTATTCGCACCGACAC | -0.345 ± 0.0079 | -0.378 ± 0.45 |
| ACATTTTGGTATACAACCATAAAATGATAATTACACCCATAAATTGATAATTATCACACCCATAAATTGATATTGCCTCTGATCATAGTCAGACCAACATTGCTACGACCCGTATTCGCACCGACAC | -5.963 ± 0.038 | -6.61 ± 2.1 |
| ACATTTGTCGATACAACCCTAAAATGATAATTACACCCATAAATTCATAATTATCACACCCAATTTAACTATAACGCTCTGATCATAGTCAGACCAACATTGCTACGACCCGTATTCGCACCGACAC | -4.55 ± 0.13 | -2.19 ± 0.3 |
| ACATTTGTTGATACACCCATAAATTGATAATTACAACCATAAAGTGATATTTATCACACCCATAAATTGATATTGCCTCTGATCATAGTCAGACCAACATTGCTACGACCCGTATTCGCACCGACAC | -0.477 ± 0.26 | -0.466 ± 0.18 |

| Sequence | relative integration efficiency (log2) [1] | relative integration efficiency (log2) [2] |
| --- | --- | --- |
| ACATTTGTTGATACAACCATAAAATGATAATTAATAATTATTTACACCCATAAATTGATAATTATCACACCCATAAATTGATATTGCCTCTGATCATAGTCAGACCAACATTGCTACGACCCGTATT | -2.85 ± 0.13 | -4.57 ± 0.14 |
| ACATTTGTTGATACAACCATATAATGATAATAACACCCATAAAATGATAATTATCACACCCAATTTAACTATAACGCTCTGATCATAGTCAGACCAACATTGCTACGACCCGTATTCGCACCGACAC | -1.15 ± 0.33 | 2.16 ± 0.14 |
| ACATTTGTTGATACAACCATAAGTTGATATTTTCACCCATAAATTGATAATTATCAGTGGGTATTTAACTATAACGCTCTGATCATAGTCAGACCAACATTGCTACGACCCGTATTCGCACCGACAC | -1 ± 0.34 | 2.55 ± 0.051 |
| ACATTTGTTGACAACCATAAAATGATAATTACACCCATAAATTGATAATTATCACACCCATAAATTGATATTGCCTCTGATCATAGTCAGACCAACATTGCTACGACCCGTATTCGCACCGACACTG | -7.09 ± 0.12 | -6.81 ± 1.7 |
| ACATTTGTTGATACAACCATAAAATGATCATTACCCCCATAAATTGATAATTATCCCACCCCATTTAACTATAACGCTCTGATCATAGTCAGACCAACATTGCTACGACCCGTATTCGCACCGACAC | -1.91 ± 0.36 | 1.86 ± 0.02 |
| ACATTTGTTGATACAACCATAAAATGATAATTACTCTGATCATAGTCAGACCACACCCATAAATTGATAATTATCAGTGGGTATTTAACTATAACGACATTGCTACGACCCGTATTCGCACCGACAC | -0.22 ± 0.33 | 2.27 ± 0.15 |
| ACATTTGTTGATACAACCATAAAATGATAATTAATAATTATTTATAATCAGCAACTTAACCACACCCATAAATTGATAATTATCAACAAACGCCCGGTCGCGGTACTCTGATCATAGTCAGACCAAC | -2.81 ± 0.91 | 1.01 ± 0.042 |
| ACATTTGTTGATAGTTGGTATTTTACTATTAATGTGGGTATTTAACTATTAATTCACACCCATAAATTGATATTGCCTCTGATCATAGTCAGACCAACATTGCTACGACCCGTATTCGCACCGACAC | -6.222 ± 0.043 | -3.485 ± 0.034 |
| ACATTTGCTGATAGAACCATATAATGATAATAACACCCATAAAATGATAATTATCACACCCAATTTAACTATAACGCTCTGATCATAGTCAGACCAACATTGCTACGACCCGTATTCGCACCGACAC | -2.94 ± 0.33 | -1.38 ± 0.21 |
| ACATTTGTTGATACAACCATAAAATGATAATTACACCCATAAATTGATAATTATCACACCCATAAATTGATATTGCTCTGATCATAGTCAGACCAACATTGCTACGACCCGTATTCGCACCGACACT | 0.126 ± 0.019 | -0.11 ± 0.21 |
| ACATTTGTTGATACAACCATAAAATCATAATTACCCCCATCAATTGATAATTATCACACCCCATTTAACTATAACGCTCTGATCATAGTCAGACCAACATTGCTACGACCCGTATTCGCACCGACAC | -5.34 ± 0.18 | -1.5 ± 0.28 |
| ACATTTGTTGATACAACCATAAAATGATAATAACACCCATAAAATGATAATTATCACACCCAATTTAACTATAACGCTCTGATCATAGTCAGACCAACATTGCTACGACCCGTATTCGCACCGACAC | -0.0962 ± 0.22 | 3.211 ± 0.011 |
| ACATTTGTTGATACACCCATAAATTGATATTGCCAACCATAAGTTGATATTTTTCAGTGGGTATTTAACTATAACGCTCTGATCATAGTCAGACCAACATTGCTACGACCCGTATTCGCACCGACAC | -1.31 ± 0.4 | 2.3 ± 0.092 |
| ACATTTGTTGATACAACCATAAAATGATAAGGCCACCCATAAATTGATAAGGCTCACACCCATAAATTGATATGTACTCTGATCATAGTCAGACCAACATTGCTACGACCCGTATTCGCACCGACAC | -1.42 ± 0.28 | -0.158 ± 0.46 |
| ACATTTGTTGATACAACCATAAAATGATAATTAATAATTCACCCATAAATTGATAATTATCACACCCATAAATTGATATTGCCTCTGATCATAGTCAGACCAACATTGCTACGACCCGTATTCGCAC | -2.69 ± 0.18 | 1.16 ± 0.069 |
| ACATTTGTTGATACAACCATAAAATGATAATTACACCCATAAATTGATACGGCGACACAAACGCCCGGTCGCGGTAAGAGGATCATAGTCAGACCAACATTGCTACGACCCGTATTCGCACCGACAC | -0.726 ± 0.13 | 2.25 ± 0.24 |
| ACATTTGTTGATACAACCATAAAATGATTTAAACACCCATAAATTGATAATTATCACACCCATAAATTGATATTGCCTCTGATCATAGTCAGACCAACATTGCTACGACCCGTATTCGCACCGACAC | -0.3814 ± 0.0024 | -0.234 ± 0.29 |
